In assay [1] the target is human serum albumin (hSA, Sigma-Aldrich A3782) (human, UniProt P02768 25-609). Put plainly: SPR, hSA amine-coupled to CM5, antibody injected, pH 5.5, 1:1 Langmuir.
For assay [2], the target named is T1, plasma-membranous human MSLN on cell lines (H226, HPAC, H292, OVCAR-3, MeT-5A) (human, UniProt Q13421 296-598).
T1 construct: whole, on cells; also called human MSLN on H226 cells; mesothelin on target cells
As to the kind of experiment: flow cytometry on Met-5A cells, protein L-PE, 4PL fit. Background: A flow cytometer gives signals particle by particle.

Assay [3] concerns the target T2, human recombinant CD3ε protein (Sino Biological) (human, UniProt P07766 23-126).
T2 construct: Bought protein; also called recombinant human CD3ε; human CD3ε
As to the kind of experiment: SPR, CD3ε amine-coupled to CM5, antibody injected. On the technique in general: In SPR one partner is held on a chip, and binding of the other changes the refractive index at the surface.

Assay [4] deals with T3, recombinant human MSLN (purchased from Peprotech) (human, UniProt Q13421 296-598, limits assumed).
T3 construct: Bought protein; also called recombinant human mesothelin
Put plainly: SPR (Biacore T200), human MSLN; which of the two formats (MSLN immobilized / antibody captured) not given.

Assay [5] addresses T1, plasma-membranous human MSLN on cell …. Put plainly: flow cytometry on H226 cells, protein L-PE, 4PL fit.
Assay [6] shares this target. Put plainly: cell-based or functional assay.
Assay [7] concerns the target soluble mesothelin (sMSLN). Put plainly: cell-based or functional assay.
Assay [8] deals with T1, plasma-membranous human MSLN on cell …. Put plainly: flow cytometry on OVCAR-3 cells, protein L-PE, 4PL fit.
For assay [9] the target is unchanged. Put plainly: cELISA on H226 cells, HRP-Protein L.
The target of assay [10] is T4, recombinant cynomolgus monkey MSLN (purchased from Sino Biological) (cynomolgus monkey).
T4 construct: Bought protein
Put plainly: SPR, cynomolgus MSLN immobilized on CM5, scFv as analyte, 1:1 Langmuir.

In assay [11] the target is T3, recombinant human MSLN (purchased from …). Put plainly: SPR, MSLN immobilized on CM5, scFv as analyte, 1:1 Langmuir.
Assay [12] has as its target T5, cynomolgus monkey MSLN on recombinant CHO cell line (cynomolgus monkey).
T5 construct: whole, on cells; also called plasma-membranous cynomolgus monkey MSLN
Put plainly: cELISA on CHO cells expressing cynomolgus monkey MSLN, HRP-Protein L.

For assay [13], the target named is biotinylated MSLN (human MSLN in the MSLN/MUC16 competition ELISA) (human, UniProt Q13421 296-598, limits assumed, biotinylated). Put plainly: competition ELISA, scFv titrated with biotinylated MSLN; competitor coated MUC16. Background: ELISA stands for enzyme-linked immunosorbent assay.

B1: PRO2567 (MATCH4) (other)
chain 1: AFELTQSPSSLSASVGDRVTITCQASESINSRLAWYQQKPGQPPKLLIYDASDLTSGVPSRFSGSGSGTDFTLTISSLQPEDFATYYCQGYGGSSTTTFGTGTKLTVLGGGGGSGGGGSGGGGSGGGGSEVQLVESGGGLVQPGGSLRLSCAASGFSLSSYAMNWVRQAPGKGLEWIGHINAGDIAYYATWAKGRFTISRDNSKNTVYLQMNSLRAEDTAVYFCARGAGGFSTGPFKLWGQGTLVTVSSGGGGSGGGGSEVQLVESGGGLVQPGGSLRLSCAASGFSLSSYDMSWVRQAPGKGLAWIGASYASGPTYYASWAKGRFTISRDNSKNTVYLQMNSLRAEDTATYFCARGGWTGTSHSNIWGQGTLVTVSSGGGSGGGSGGGSGQSQLVESGGGLVQPGGSLRLSCAVSGFSLSSYAMGWVRQAPGKCLEYIGYISKIGTTYYASWAKGRFTISKDNSKNTVYLQMNSLRAEDTAVYFCARGSSSGGYLDDGFDPWGQGTLVTVSS
chain 2: ALQMTQSPSSLSARVGDRVTIKCQASQSISNYLAWYQQKPGKPPKFLIYDASDLASGVPSRFSGSGSGRDFTLTISSLQPEDFATYYCQQVYDSNNVENVFGCGTKVTVLGGGGGSGGGGSGGGGSGGGGSQSQLVESGGGLVQPGGSLRLSCAVSGFSLSSYAMGWVRQAPGKCLEYIGYISKIGTTYYASWAKGRFTISKDNSKNTVYLQMNSLRAEDTAVYFCARGSSSGGYLDDGFDPWGQGTLVTVSSGGGGSGGGGSALQMTQSPSSLSARVGDRVTIKCQASQSISNYLAWYQQKPGKPPKFLIYDASDLASGVPSRFSGSGSGRDFTLTISSLQPEDFATYYCQQVYDSNNVENVFGCGTKVTVLGGGSGGSDIQMTQSPSSLSASVGDRVTITCQSSQSVFSNNYLAWFQQKPGQSPKRLIYSASTLASGVPSRFSGSGSGTDFTLTISSLQPEDFATYYCLGSYACSSADCYVFGTGTKVTVLG
notes: Heterodimer
With B1, in [1], the Kd (in general, the concentration at which binding is half-saturated) was found to be 8.8 nM; the koff (commonly the first-order rate constant of dissociation) is 0.00453 s⁻¹; the association rate constant (kon) (in general, the second-order rate constant of association) was found to be 515000 M⁻¹ s⁻¹. In assay [2], a half-maximal effect (EC50) was put at 0.0824 nM and the “max. binding (MFI)” value was determined as 11200 MFI. For the same molecule, the Kd in assay [3] was 4.78 nM. In assay [4], the equilibrium dissociation constant (Kd) was found to be 1.41 nM, the koff was 0.000578 s⁻¹ and the kon is 411000 M⁻¹ s⁻¹. Also, in assay [5], the EC50 (commonly the concentration that produces a half-maximal response) came to 0.611 nM and the “max. binding (MFI)” value came out at 809000 MFI. Moreover, in assay [6], the “Fold-diff Window (mean Met-5A EC50 / mean H226 EC50)” value worked out at 28.5 fold; the “average mean H226 EC50, cell killing (LDH release)” value came to 0.00346 nM; the “average mean Met-5A EC50, cell killing (LDH release)” value was 0.0987 nM. In [7], the “Delta 0-50 ng/mL sMSLN (x-fold change in H226 killing potency)” value is 3.2 fold and the “Delta 0-500 ng/mL sMSLN (x-fold change in H226 killing potency)” value was 23.8 fold. Besides, in assay [8], the 50% effective concentration (EC50) was determined as 6.64 nM and the “max. binding (MFI)” value worked out at 170000 MFI.

B2: PRO2566 (MATCH4) (other)
chain 1: AFELTQSPSSLSASVGDRVTITCQASESINSRLAWYQQKPGQPPKLLIYDASDLTSGVPSRFSGSGSGTDFTLTISSLQPEDFATYYCQGYGGSSTTTFGTGTKLTVLGGGGGSGGGGSGGGGSGGGGSEVQLVESGGGLVQPGGSLRLSCAASGFSLSSYAMNWVRQAPGKGLEWIGHINAGDIAYYATWAKGRFTISRDNSKNTVYLQMNSLRAEDTAVYFCARGAGGFSTGPFKLWGQGTLVTVSSGGGGSGGGGSEVQLVESGGGLVQPGGSLRLSCAASGFSLSSYDMSWVRQAPGKGLAWIGASYASGPTYYASWAKGRFTISRDNSKNTVYLQMNSLRAEDTATYFCARGGWTGTSHSNIWGQGTLVTVSSGGGSGGGSGGGSGQSQLVESGGGLVQPGGSLRLSCAVSGFSLSSYAMGWVRQAPGKCLEYIGYISKIGTTYYASWAKGRFTISKDNSKNTVYLQMNSLRAEDTAVYFCARGSSSGGYLDDGFDPWGQGTLVTVSS
chain 2: ALQMTQSPSSLSARVGDRVTIKCQASQSISNYLAWYQQKPGKPPKFLIYDASDLASGVPSRFSGSGSGRDFTLTISSLQPEDFATYYCQQVYDSNNVENVFGCGTKVTVLGGGGGSGGGGSGGGGSGGGGSQSQLVESGGGLVQPGGSLRLSCAVSGFSLSSYAMGWVRQAPGKCLEYIGYISKIGTTYYASWAKGRFTISKDNSKNTVYLQMNSLRAEDTAVYFCARGSSSGGYLDDGFDPWGQGTLVTVSSGGGGSGGGGSALQMTQSPSSLSARVGDRVTIKCQASQSISNYLAWYQQKPGKPPKFLIYDASDLASGVPSRFSGSGSGRDFTLTISSLQPEDFATYYCQQVYDSNNVENVFGCGTKVTVLGGGSGGSGGSGGSGDIQMTQSPSSLSASVGDRVTITCQSSQSVFSNNYLAWFQQKPGQSPKRLIYSASTLASGVPSRFSGSGSGTDFTLTISSLQPEDFATYYCLGSYACSSADCYVFGTGTKVTVLG
notes: Heterodimer
Take B2: in assay [1], the dissociation constant (Kd) was determined as 6.89 nM, the koff worked out at 0.00399 s⁻¹ and the kon turned out to be 579000 M⁻¹ s⁻¹. Further, in assay [2], the response was half-maximal at 0.106 nM (EC50) and the “max. binding (MFI)” value stood at 12100 MFI. Further, in assay [3], the Kd is 2.97 nM. Further, in [4], the Kd is 1.52 nM, the dissociation rate constant (koff) came to 0.000608 s⁻¹ and the association rate constant (kon) worked out at 400000 M⁻¹ s⁻¹. For the same molecule, in assay [5], the EC50 was found to be 0.564 nM and the “max. binding (MFI)” value was 757000 MFI. Besides, in assay [6], the “Fold-diff Window (mean Met-5A EC50 / mean H226 EC50)” value worked out at 436 fold; the “average mean H226 EC50, cell killing (LDH release)” value was determined as 0.00609 nM; the “average mean Met-5A EC50, cell killing (LDH release)” value turned out to be 2.66 nM. Moreover, in [7], the “Delta 0-50 ng/mL sMSLN (x-fold change in H226 killing potency)” value amounted to 3.1 fold and the “Delta 0-500 ng/mL sMSLN (x-fold change in H226 killing potency)” value amounted to 14.2 fold. In assay [8], the midpoint of the response, the EC50, lay at 5.13 nM and the “max. binding (MFI)” value was 154000 MFI.

B3: anti-MSLN scFv PRO1783 (scFv)
scFv: DIQMTQSPSSLSASVGDRVTITCQASQNIYSNLAWYQQKPGKAPKLLIYDASDLASGVPSRFSGSGSGTDFTLTISSLQPEDFATYYCQQVRSSSDIDNPFGTGTKVTVLGGGGGSGGGGSGGGGSGGGGSQVQLVESGGGLVQPGGSLRLSCAASGFSLSSYAMGWVRQAPGKGLEWIGYISTINNTYYASWAKGRFTISRDNSKNTVYLQMNSLRAEDTAVYYCAREIRSGWVDYGFSIWGQGTLVTVSS
notes: also called 54-01-G02-sc01
Turning to B3, in assay [9], it took 1.44 nM to reach a half-maximal effect (EC50); the “rel. EC50 (EC50, Amatuximab/EC50, scFv)” value came out at 0.16 ratio; the “rel. Maximum binding (OD450-690 nm, scFv/OD450-690 nm, Amatuximab)” value (from here on “rel. Maximum binding”) was 0.57 ratio. Further, in assay [10], the Kd was found to be 30.6 nM, the off-rate (koff) was 0.0527 s⁻¹ and the on-rate (kon) was 1.72e+06 M⁻¹ s⁻¹. In [11], the equilibrium dissociation constant (Kd) stood at 2.91 nM, the koff turned out to be 0.00227 s⁻¹ and the kon is 780000 M⁻¹ s⁻¹. Further, in [12], the half-maximal effective concentration (EC50) worked out at 12 nM; the “rel. EC50 (EC50, Amatuximab/EC50, scFv)” value stood at 0.03 ratio; the “rel. Maximum binding” value worked out at 0.89 ratio. Moreover, in [13], the IC50 – broadly, the concentration that inhibits the measured activity by half – stood at 0.5 nM; the “Maximum inhibition at highest sample conc.” value came out at 99.2%; the “rel. IC50 (IC50, Amatuximab/IC50, scFv)” value came to 0.03 ratio.

B4: reference anti-MSLN scFv PRO1795 (scFv)
scFv: DIQMTQSPSSLSASVGDRVTITCQASESIGNYLAWYQQKPGKAPKLLIYSASTLASGVPSRFSGSGSGTDFTLTISSLQPEDFATYYCQSTDYGDSYIFGTGTKVTVLGGGGGSGGGGSGGGGSGGGGSEVQLVESGGGLVQPGGSLRLSCAASGISVSNDYYMCWVRQAPGKGLEWIGCISTYIGNTHYASWAKGRFTISRDNSKNTVYLQMNSLRAEDTAVYYCAKNAGYPGYRYAIDLWGQGTLVTVSS
notes: also called 54-22-H03-sc01
In the case of B4, in [9], the half-maximal effective concentration (EC50) stood at 0.25 nM; the “rel. EC50 (EC50, Amatuximab/EC50, scFv)” value came out at 0.98 ratio; the “rel. Maximum binding” value was determined as 0.71 ratio. Further, in assay [10], the Kd stood at 1.08 nM, the dissociation rate constant (koff) was determined as 0.0011 s⁻¹ and the kon turned out to be 1.02e+06 M⁻¹ s⁻¹. Moreover, in [11], the equilibrium dissociation constant (Kd) worked out at 0.321 nM, the koff was 0.000183 s⁻¹ and the kon was determined as 568000 M⁻¹ s⁻¹. In [12], the EC50 came to 0.76 nM; the “rel. EC50 (EC50, Amatuximab/EC50, scFv)” value worked out at 0.7 ratio; the “rel. Maximum binding” value turned out to be 0.81 ratio. In assay [13], the concentration for half-maximal inhibition (IC50) was 0.02 nM; the “Maximum inhibition at highest sample conc.” value came out at 99%; the “rel. IC50 (IC50, Amatuximab/IC50, scFv)” value was 0.87 ratio.
